Experimental data: US20220017622A1 (Pfizer, published 2022)

What was measured:
[1] = molecular target: T1, human CD3 (delta/epsilon heterodimer) (human, UniProt P07766 23-126; P04234 22-105); assay: SPR 25 C; CD3 delta/epsilon on anti-His chip, bispecific analyte
T1 construct: captured on an anti-His chip, so it carries a His tag; also called huCD3

[2] = molecular target: T2, cyno CD3 (delta/epsilon heterodimer) (cyno, UniProt Q95LI5 22-117; Q95LI8 22-105); assay: as above
T2 construct: also called cyCD3

[3] = molecular target: T3, cyno B7-H4 extracellular domain (cyno, UniProt Q7Z7D3 29-258 (human entry)); assay: SPR 37 C; bispecific on anti-hFc chip, ECD analyte
T3 construct: Soluble ECD used as SPR analyte; also called cyB7-H4 ECD; cyB7-H4
T3 sequence: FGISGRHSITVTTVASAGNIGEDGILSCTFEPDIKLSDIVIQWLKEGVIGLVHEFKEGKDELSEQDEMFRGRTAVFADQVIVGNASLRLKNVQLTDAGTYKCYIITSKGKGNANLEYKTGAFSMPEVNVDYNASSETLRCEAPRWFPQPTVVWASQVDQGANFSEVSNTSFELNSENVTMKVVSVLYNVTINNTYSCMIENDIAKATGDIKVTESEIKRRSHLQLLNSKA

[4] = molecular target: T4, human B7-H4 extracellular domain (human, UniProt Q7Z7D3 29-258); assay: SPR 37 C; bispecific on anti-hFc chip, ECD analyte
T4 construct: Soluble ECD used as SPR analyte; also called huB7-H4 ECD; huB7-H4
T4 sequence: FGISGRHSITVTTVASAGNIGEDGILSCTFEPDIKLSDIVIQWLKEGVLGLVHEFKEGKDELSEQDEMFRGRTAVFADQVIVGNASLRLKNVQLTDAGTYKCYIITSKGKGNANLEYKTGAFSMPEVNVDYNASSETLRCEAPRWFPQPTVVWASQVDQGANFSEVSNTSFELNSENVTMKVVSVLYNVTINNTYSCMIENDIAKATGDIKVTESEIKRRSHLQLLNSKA

[5] = molecular target: T5, mouse B7-H4 extracellular domain (mouse, UniProt Q7TSP5 29-258); assay: SPR 37 C; bispecific on anti-hFc chip, ECD analyte
T5 construct: Soluble ECD used as SPR analyte; also called muB7-H4 ECD; muB7-H4
T5 sequence: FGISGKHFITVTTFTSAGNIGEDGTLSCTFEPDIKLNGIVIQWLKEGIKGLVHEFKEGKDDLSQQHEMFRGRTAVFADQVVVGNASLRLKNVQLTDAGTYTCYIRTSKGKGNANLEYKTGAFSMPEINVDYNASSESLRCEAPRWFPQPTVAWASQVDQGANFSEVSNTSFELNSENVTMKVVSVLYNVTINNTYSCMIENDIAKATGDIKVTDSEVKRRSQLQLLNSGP

[6] = molecular target: T3, cyno B7-H4 extracellular domain; assay: SPR 37 C; bispecific on anti-hFc chip, ECD analyte; remark: listed apart in the source
[7] = molecular target: T6, rat B7-H4 extracellular domain (rat, UniProt Q501W4 29-257); assay: SPR 37 C; bispecific on anti-hFc chip, ECD analyte
T6 construct: Soluble ECD used as SPR analyte; also called ratB7-H4 ECD
T6 sequence: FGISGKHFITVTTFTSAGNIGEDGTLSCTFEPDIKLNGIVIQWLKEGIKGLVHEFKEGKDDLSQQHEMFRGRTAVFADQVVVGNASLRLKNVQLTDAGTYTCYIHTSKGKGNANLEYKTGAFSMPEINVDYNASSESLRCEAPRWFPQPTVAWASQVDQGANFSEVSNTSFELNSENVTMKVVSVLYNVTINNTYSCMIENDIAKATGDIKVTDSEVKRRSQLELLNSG

[8] = molecular target: T4, human B7-H4 extracellular domain; assay: SPR 37 C; bispecific on anti-hFc chip, ECD analyte; remark: listed apart in the source
[9] = molecular target: T1, human CD3 (delta/epsilon heterodimer); assay: SPR 37 C; CD3 delta/epsilon on anti-His chip, bispecific (IgG2 scaffold) analyte
[10] = molecular target: T4, human B7-H4 extracellular domain; assay: SPR 37 C; bispecific (IgG2 scaffold) on anti-hFc chip, ECD analyte
[11] = molecular target: T1, human CD3 (delta/epsilon heterodimer); assay: SPR 37 C; CD3 delta/epsilon on anti-His chip, bispecific analyte; CD3 variant 2B5v6
human B7-H4 on cells = molecular target: T7, human B7-H4 on cells (human, UniProt Q7Z7D3 25-282); assay: cell-based or functional assay
T7 sequence (looked up): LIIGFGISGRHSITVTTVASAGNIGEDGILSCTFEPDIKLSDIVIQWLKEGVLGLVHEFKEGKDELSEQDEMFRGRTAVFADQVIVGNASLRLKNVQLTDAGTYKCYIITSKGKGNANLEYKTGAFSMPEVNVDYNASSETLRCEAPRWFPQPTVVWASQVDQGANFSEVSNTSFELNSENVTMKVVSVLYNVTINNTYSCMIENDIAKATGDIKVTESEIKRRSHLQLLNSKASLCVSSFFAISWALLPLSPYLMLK

[12] = molecular target: T5, mouse B7-H4 extracellular domain; assay: SPR 25 C; bispecific on anti-hFc chip, ECD analyte
[13] = molecular target: T3, cyno B7-H4 extracellular domain; assay: SPR 25 C; bispecific on anti-hFc chip, ECD analyte
[14] = molecular target: T4, human B7-H4 extracellular domain; assay: SPR 25 C; bispecific on anti-hFc chip, ECD analyte
[15] = molecular target: T1, human CD3 (delta/epsilon heterodimer); assay: SPR 37 C; CD3 delta/epsilon on anti-His chip, bispecific analyte
[16] = molecular target: T2, cyno CD3 (delta/epsilon heterodimer); assay: as above

T2 sequence (Q95LI5 22-117, stated change not applied, chain 1 of 2): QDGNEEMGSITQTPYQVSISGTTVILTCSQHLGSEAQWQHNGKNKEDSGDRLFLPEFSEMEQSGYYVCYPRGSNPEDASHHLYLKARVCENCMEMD
T2 sequence (Q95LI8 22-105, stated change not applied, chain 2 of 2): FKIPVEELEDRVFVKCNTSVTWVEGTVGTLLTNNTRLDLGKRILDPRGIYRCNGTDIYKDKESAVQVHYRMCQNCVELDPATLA
T1 sequence (P07766 23-126, stated change not applied, chain 1 of 2): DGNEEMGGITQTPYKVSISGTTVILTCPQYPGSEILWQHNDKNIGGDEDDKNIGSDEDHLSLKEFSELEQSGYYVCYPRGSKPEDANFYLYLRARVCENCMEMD
T1 sequence (P04234 22-105, stated change not applied, chain 2 of 2): as the sequence (Q95LI8 22-105, stated change not applied, chain 2 of 2) above, with V5I, K15N, V20I, T32S, N33D, N34I, A64T, N74S, L83V counted along it

B1: B7-H4xCD3 bispecific antibody 0074 (bispecific antibody, IgG2)
heavy 1: QVQLQQWGAGLLKPSETLSLTCAVYGGSFSGYYWNWIRQPPGKGLEWIGEINHSGSTKYNPSLKSRVTISGDTSKNQFSLKLNSVTAADTAVYYCVRGLYNWNVDSWGQGTLVTVSSASTKGPSVFPLAPCSRSTSESTAALGCLVKDYFPEPVTVSWNSGALTSGVHTFPAVLQSSGLYSLSSVVTVPSSNFGTQTYTCNVDHKPSNTKVDKTVERKCEVECPECPAPPVAGPSVFLFPPKPKDTLMISRTPEVTCVVVAVSHEDPEVQFNWYVDGVEVHNAKTKPREEQFNSTFRVVSVLTVVHQDWLNGKEYKCKVSNKGLPSSIEKTISKTKGQPREPQVYTLPPSREEMTKNQVSLTCEVKGFYPSDIAVEWESNGQPENNYKTTPPMLDSDGSFFLYSKLTVDKSRWQQGNVFSCSVMHEALHNHYTQKSLSLSPGK
light 1: DIQMTQSPSSLSASVGDRVTITCRASQGIRNDLGWYQQKPGKAPKRLIYVASSLQSGVPSRFSGSGSGTEFTLTISSLQPEDFATYYCLQHNSYPYTFGQGTKLEIKRTVAAPSVFIFPPSDEQLKSGTASVVCLLNNFYPREAKVQWKVDNALQSGNSQESVTEQDSKDSTYSLSSTLTLSKADYEKHKVYACEVTHQGLSSPVTKSFNRGEC
heavy 2: EVQLVESGGGLVQPGGSLRLSCAASGFTFSDYYMTWVRQAPGKGLEWVAFIRNQARGYTSDHNPSVKGRFTISRDNAKNSLYLQMNSLRAEDTAVYYCARDRPSYYVLDYWGQGTTVTVSSASTKGPSVFPLAPCSRSTSESTAALGCLVKDYFPEPVTVSWNSGALTSGVHTFPAVLQSSGLYSLSSVVTVPSSNFGTQTYTCNVDHKPSNTKVDKTVERKCRVRCPRCPAPPVAGPSVFLFPPKPKDTLMISRTPEVTCVVVAVSHEDPEVQFNWYVDGVEVHNAKTKPREEQFNSTFRVVSVLTVVHQDWLNGKEYKCKVSNKGLPSSIEKTISKTKGQPREPQVYTLPPSREEMTKNQVSLTCLVKGFYPSDIAVEWESNGQPENNYKTTPPMLDSDGSFFLYSRLTVDKSRWQQGNVFSCSVMHEALHNHYTQKSLSLSPGK
light 2: DIQMTQSPSSLSASVGDRVTITCTSSQSLFNVRSQKNYLAWYQQKPGKAPKLLIYWASTRESGVPSRFSGSGSGTDFTLTISSLQPEDFATYYCKQSYDLFTFGGGTKVEIKRTVAAPSVFIFPPSDEQLKSGTASVVCLLNNFYPREAKVQWKVDNALQSGNSQESVTEQDSKDSTYSLSSTLTLSKADYEKHKVYACEVTHQGLSSPVTKSFNRGEC
notes: Chains 1-2: B7-H4 arm; chains 3-4: CD3 arm; IgG2 EEE/RRR; also called anti-B7-H4 clone 28D10; CD3 variant 2B5v6
**Q.** How did the Kd [1] turn out when B1 was run?
**A.** 7.38 nM

**Q.** And the koff [1]?
**A.** 0.00559 s⁻¹

**Q.** What about the kon [1] of the same binder?
**A.** 758000 M⁻¹ s⁻¹

**Q.** And the Kd [2]?
**A.** 8.33 nM

**Q.** What about the koff [2] of the same binder?
**A.** 0.00534 s⁻¹

**Q.** What about the kon [2] of the same binder?
**A.** 642000 M⁻¹ s⁻¹

**Q.** And the Kd [3]?
**A.** 30.9 nM

**Q.** What about the koff [3] of the same binder?
**A.** 0.00581 s⁻¹

**Q.** What about the kon [3] of the same binder?
**A.** 188000 M⁻¹ s⁻¹

**Q.** What about the Kd [4] of the same binder?
**A.** 21.9 nM

**Q.** What about the koff [4] of the same binder?
**A.** 0.00602 s⁻¹

**Q.** What about the kon [4] of the same binder?
**A.** 275000 M⁻¹ s⁻¹

**Q.** And the Kd [5]?
**A.** 776 nM

**Q.** And the koff [5]?
**A.** 0.134 s⁻¹

**Q.** And the kon [5]?
**A.** 173000 M⁻¹ s⁻¹

**Q.** And the Kd [6]?
**A.** 8.81 nM

**Q.** And the koff [6]?
**A.** 0.00487 s⁻¹

**Q.** And the kon [6]?
**A.** 553000 M⁻¹ s⁻¹

**Q.** What about the Kd [7] of the same binder?
**A.** 1120 nM

**Q.** What about the koff [7] of the same binder?
**A.** 0.131 s⁻¹

**Q.** And the kon [7]?
**A.** 117000 M⁻¹ s⁻¹

**Q.** And the Kd [8]?
**A.** 8.86 nM

**Q.** What about the koff [8] of the same binder?
**A.** 0.00509 s⁻¹

**Q.** What about the kon [8] of the same binder?
**A.** 575000 M⁻¹ s⁻¹

**Q.** And the Kd [9]?
**A.** 56.9 nM

**Q.** What about the koff [9] of the same binder?
**A.** 0.0336 s⁻¹

**Q.** What about the kon [9] of the same binder?
**A.** 592000 M⁻¹ s⁻¹

**Q.** What about the Kd [10] of the same binder?
**A.** 18.2 nM

**Q.** And the koff [10]?
**A.** 0.00582 s⁻¹

**Q.** And the kon [10]?
**A.** 319000 M⁻¹ s⁻¹

**Q.** And the Kd [11]?
**A.** 56.9 nM

**Q.** What about the koff [11] of the same binder?
**A.** 0.0336 s⁻¹

**Q.** What about the kon [11] of the same binder?
**A.** 592000 M⁻¹ s⁻¹

**Q.** And the “T cell mediated tumor cell killing EC50, HCC1954-Luc” value (human B7-H4 on cells)?
**A.** 73 nM

**Q.** And the “T cell mediated tumor cell killing, MDA-MB-468” value (human B7-H4 on cells)?
**A.** 42

**Q.** And the “T cell mediated tumor cell killing, OVCAR3-Luc” value (human B7-H4 on cells)?
**A.** 31

**Q.** And the “T cell mediated tumor cell killing, T47D” value (human B7-H4 on cells)?
**A.** 224

**Q.** And the Kd [12]?
**A.** 299 nM

**Q.** And the koff [12]?
**A.** 0.0299 s⁻¹

**Q.** What about the kon [12] of the same binder?
**A.** 100000 M⁻¹ s⁻¹

**Q.** And the Kd [13]?
**A.** 9.29 nM

**Q.** And the koff [13]?
**A.** 0.0012 s⁻¹

**Q.** And the kon [13]?
**A.** 129000 M⁻¹ s⁻¹

**Q.** And the Kd [14]?
**A.** 6.83 nM

**Q.** And the koff [14]?
**A.** 0.0012 s⁻¹

**Q.** What about the kon [14] of the same binder?
**A.** 176000 M⁻¹ s⁻¹

**Q.** And the Kd [15]?
**A.** 41.9 nM

**Q.** What about the koff [15] of the same binder?
**A.** 0.0234 s⁻¹

**Q.** And the kon [15]?
**A.** 558000 M⁻¹ s⁻¹

**Q.** What about the Kd [16] of the same binder?
**A.** 47.1 nM

**Q.** And the koff [16]?
**A.** 0.0239 s⁻¹

**Q.** What about the kon [16] of the same binder?
**A.** 507000 M⁻¹ s⁻¹
